Laboratory results published in the DeepSol protein solubility set.

Test: soluble on expression in E. coli; label from the status in PepcDB or PDB records

| Sequence | soluble on expression in E. coli |
| --- | --- |
| MSVDPNLLTPYKNTGAANASLRQISEDAFYVVNEVVMKRLGHVPILKGDFHLLPAKVQRFIAEKAELMRPRGIFICDGSQHEADELIDKLIERGMLSKLEAYENNYICRTDPKDVARVESKTWMVTKNKYDTVTHTKEGVEPIMGHWLAPEDLATELDSRFPGCMAGRIMYVIPFSMGPVGGPLSKIGIQLTDSNYVVLSMRIMTRVNNDVWDALGNQDFVRCIHSVGLPRPVKQRVINHWPCNPERVLIAHRPPEREIWSFGSGYGGNSLLGKKCFALRIASNIAKDEGWMAEHMLIMGVTRPCGREHFIAAAFPSACGKTNLAMLEPTLPGWKVRCVGDDIAWMKFGEDGRLYAINPEAGFFGVAPGTSNKTNPMAVATFQKNSIFTNVAETANGEYFWEGLEDEIADKNVDITTWLGEKWHIGEPGVAAHPNSRFAAPANQCPIIHPDWESPQGVPIEAIIFGGRRPQGVPLIYETNSWEHGVFTGSCLKSEATAAAEFTGKTVMHDPMAMRPFMGYNFGKYLQHWLDLKTDSRKMPKIYHVNWFRKDSNNKFLWPGFGDNIRVIDWIIRRLDGEQEIGVETPIGTVPAKGSINLEGLGEVNWDELMSVPADYWKQDAQEIRKFLDEQVGEDLPEPVRAEMDAQEKRVQTL | not soluble |
| MAHHHHHHMSAAAADYPLRRGGDVEDDVDDEERRRLTESSIKAFLEEEGVPVRSSVTVEDITSALVALANSVATASACLAVKVALLRLDCLTAVEGELRKDATRASSSKVRVTAEKSPSPRMTRASAFGWLRHLHQEGKGVCGVLRGGKAELGFVLASFVEEALLFAAMRSLMDRLGPLLPSENGRAGGAAALWWAGLSRTVAPTFVMSLLSWPLRAVRTTIRVNYMADTSLPVCEPSLQPAQQQGEQQQRRQHRYTSATEVWGCVLHRMGVRSLLLNGLDVDFASRALSLGLAWTVVKPASRWMQRWAMMSASTAGAASAPLALVRLGQHRLFALGVLLAVAGSVNALQRPFVVLRQRMALLPVADAESVCNGDDDQTKTPPTARRGCRYANGWDCAVQVWRQEGVSGLLAGLPLCLITSSVVPLLRTFAGYPTAPSFSGAVV | not soluble |
| MELDDALDELSDSLGQRQPDPDENKPLDDKVKEKIKAEHSEKLGERDDTIPPEYRHLLDNDGKDKPEKPLTKNTEKPGQDQDPIDALSEDLDSCP | soluble |
| MGSDKIHHHHHHMISATNWVPRGFSSEFPEKYVLDDEEVERINQLAQLNLDDAKATLEEAEGESGVEDDAATGSSNKLKDQLDIDDDLKEYNLEEYDDEEIADNEGGKDVSMFPGLSNDSDVKFHEGEKGEDPYISLPNQEDSQEEKQELQVYPSDNLVLAARTEDDVSYLDIYVYDDGAGFHSSDIPVEEGDEADPDVARGLVRDPALYVHHDLMLPAFPLCVEWLDYKVGSNSEEAANYAAIGTFDPQIEIWNLDCVDKAFPDMILGEPLDNSMVSLKSKKKKKKSKTGHITTHHTDAVLSMAHNKYFRSVLASTSADHTVKLWDLNSGNAARSLASIHSNKNVSSSEWHMLNGSILLTGGYDSRVALTDVRISDESQMSKYWSAMAGEEIETVTFASENIILCGTDSGNVYSFDIRNNENRKPVWTLKAHDAGISTLCSNKFIPGMMSTGAMGEKTVKLWKFPLDDATNTKGPSMVLSRDFDVGNVLTSSFAPDIEVAGTMVIGGVNKVLKLWDVFTNRSVRKSFKSELENVQARAKEEAQKIGKSSRIARKYTSNDNPDTVITIDDQGEDEEEREGGDEHDDMA | not soluble |
| MSLDRKGNPVVRWDNNWLGSNEPCEDRWATDLVRRDGAAGGAVGKAVNFWTRWYRGDSIPSESAPAEEDEAARGKHDLMLFSIMDGHAGDATSRLLQKSLHPTISMALAGLQRGNVPPRHNVWERWAGYLNPWYWLGTDTVWTPENVSKTIQNAFVQLDDNICQTPLKLLPTLSSPSTSSPTPRETLVALAQPAAAGACAISTLVDSENDDLYVAVTGDCRAVAGWEGEDGKWRCDVLSEDQMGDNPKEIERMRSEHPASERDTVIRNGRVQGGLQPTRAFGDAVYKWTNAQAAQIADAFRAQGERPRPGRPWNYTPPYVTARPEVTYRKLNAHTGEKLRFIVLATDGLWDRITSEESTLLLASYLSHPSHAPLPKSALPRREGHHHHHH | soluble |
| MSLKNKLQVKIPGKLYVAGEYAVVESGHTAILTAVNRYITLTLEDSERNELWIPHYENPVSWPIGGELKPDGEHWTFTAEAINIATTFLKSEGIELTPVKMVIETELIDQSGAKYGLGSSAAATVAVINALMTKFYPEISMLKKFKLAALSHLVVQGNGSCGDIASCMYGGWIAYTTFDQEWVKHRLAYKSLEWFMKEPWPMLQIETLEEPVPTFSVGWTGTPVSTGKLVSQIHAFKQEDSKNYQHFLTRNNEIMKQIIQAFHTKDEELLYSSIKENRRILQELGTKAGVNIETSLLKELADSAENMGGAGKSSGSGGGDCGIAFSKTKELAEKLVNEWEKLGIKHLPFHTGRVQITEGHHHHHH | soluble |
| TPLLKTEFFPQSDNGYIQIQAEYPVGTGVNLPRAFALRMIDSWEKEIPEIDRTSFSVGQAEASSMFAAMQDNGTNIITFHIGLTGRNERKRSMNEVADQIRTMLDDYPEIHSYKVTPGGSGGGMGGQPTVNLDIYGYDFNKTGDLAERFSRLMKEDARCAQATISRKDYVPEYQFVFDRTKLAENGLNSTTAAMFLRNRVNGRVASTYREEGDEYDIRVRLAPEFRRSLRDLENILIYTPQGKGVRLGELGKIEELYTPPTIERKDRQRVVIVASTAVKGAALSDLVEVAKEKIAQLEIPDGIDYKISGTYEDQQKTFAD | not soluble |
| MGSDKIHHHHHHMPAIAFIDISGSPFQAGQALGRFGASAVRDHLLHTDAWRSVMRWRGTEQAALMAAQVQARFPRIWDELKGLADGLGLPLEDTFLWNCRGDVWAMSPDGCTTVQVPGAHRRRISHNEDGDPGFSGHCAIAQCHIAGSPGFASFVYPGSLPGHTFAATELGLAMTVNNLRYRNTTAGVPRMVLTRAVLDAPDLDKALAVLRDNPHAGGFHLTLGHCRSTALLSVEFSAYGCSVLDITQTSMHANHAIHPQMRDHPQIVTGSSGHRQMRGDTVIADAARDGREIDPLELLADTAHPSFPIYRDDPHDSDGENTQATADMRVGPTCIEWEVYEQPGTAPRYRMINGHTREEDATDAGARPDVQSRH | not soluble |
| MSDRIASEKLRSKLMSADEAAQFVNHGDKVGFSGFTGAGYPKALPTAIANRAKEAHGAGNDYAIDLFTGASTAPDCDGVLAEADAIRWRMPYASDPIMRNKINSGSMGYSDIHLSHSGQQVEEGFFGQLNVAVIEITRITEEGYIIPSSSVGNNVEWLNAAEKVILEVNSWQSEDLEGMHDIWSVPALPNRIAVPINKPGDRIGKTYIEFDTDKVVAVVETNTADRNAPFKPVDDISKKIAGNFLDFLESEVAAGRLSYDGYIMQSGVGNVPNAVMAGLLESKFENIQAYTEVIQDGMVDLIDAGKMTVASATSFSLSPEYAEKMNNEAKRYRESIILRPQQISNHPEVIRRVGLIATNGLIEADIYGNVNSTNVSGSRVMNGIGGSGDFTRNGYISSFITPSEAKGGAISAIVPFASHIDHTEHDVMVVISEYGYADLRGLAPRERVAKMIGLAHPDYRPLLEEYYARATSGDNKYMQTPHDLATAFDFHINLAKNGSMKA | soluble |
| MNRIKVAILFGGCSEEHDVSVKSAIEIAANINKEKYEPLYIGITKSGVWKMCEKPCAEWENENCYSAVLSPDKKMHGLLVKKNHEYEINHVDVAFSALHGKSGEDGSIQGLFELSGIPFVGCDIQSSAICMDKSLTYIVAKNAGIATPAFWVINKDDRPVAATFTYPVFVKPARSGSSFGVKKVNSADELDYAIESARQYDSKILIEQAVSGCEVGCAVLGNSAALVVGEVDQIRLQYGIFRIHQEVEPEKGSENAVITVPADLSAEERGRIQETVKKIYKTLGCRGLARVDMFLQDNGRIVLNEVNTLPGFTSYSRYPRMMAAAGISLPELIDRLIVLALKG | soluble |
| MAHHHHHHMPQRSHVPLASPSPLNAPPPLTSRPGPVNYCGAHAEPAAGLNYTHHDDHRSVFRDQASCDPSPSQRALHQQQVHRPRAVSPGPHDGSAPHVSALVARGAVIRADELETILDEQNYIWQMEEYRFRTERQKRLTALQHRQHELMLESARYDQAVAEVERQLARERQRLEELRQMMARNATTSCSPIDREHGLQDPPTAMSDAPHVIARNSSAMHHGQARDHAYSAPHDAPYFPTGASDGLSAMNEEEVIAEV | not soluble |
| MGSDKIHHHHHHMTETTSQMRREVLEIPAAIDRLLSQGTPEIARIAAAVAKADPRFAVTVARGSSDHACTFLKYALELELGLPVASIGPSVASIYGAQLKLANSITLSVSQSGKSPDIVAMSRAATEGDSFTVAITNDAQSPLSDASSHTIDIHAGPEISVAATKTFVTSAAAGLILLAEWKDDDILRAALRGLPECLSKAATHDWPDLRAAIGSASSLFTLGRGPAWAISNEAALKFKETCQIHAESYSSAEVLHGPVSIVGGGFPVLCFASGDAAEASVTDVADQLAAKGARVFVTSDKADTAHCLPHVRTGHPLTDPLALIVSFYAMIEKVAAERGVNPDAPRHLNKVTETV | not soluble |
| MESLKSNLFLTREAYLEAFETIMTPLKTAILTSEKPGVNFGSSGAVYDQQHAEMEALIRPLWGIGPYWVTCKDDVLRDAYVEKLIAGTDPSSPDYWGVIVDYDQYIVEAAALSLTLLLHKTYFWSCFSEKQQENIMVWLNKALGCKIPKNNWTFFKVLIRLALEGCGQVINQAELEEELALIECMYLGDGWYMDGKTTQRDYYISFAFHYYSLIYVKFMRERDPIRAKRFTERAVMFAQDYLYYFDEEGEALPYGRSQTYRFAQGAFFAALIFAEVEALPWGQIKTLLAKHLHCWMQQAIFTYDGRLSIGYHYENLVMAEGYNAPGSPYWAFKTFLLLAVDQDHPFWRAEPLAIKREEKRLIEKGNMLLIHPKMKTHVLGYPAGLWLENQAHAAAKYSKFVYSSRFGFSVPKAGARYEEGAFDNVLAVSRDGEYFRVKGKVHDFYLTEEQVYYKWLPFQEVEIETTIYPFGEWHVRVHEIVTSVPLKVREGGFSLPLLGKFSEKELGKEWARVDSGELCSQIVAIEGYDHAGILQPEPNTSLFFPRTSLPYLQKELPIGTHRLICLVGGVTREE | soluble |
| MVEVRYLGHSAVLLTDGKTRIVIDPFLTGNPMAALGVGEVQADLILVTHAHGDHFGDSVALSKKGGVVVSTFEIATYAEKHGAKSVPMNLGGTYRFEGGWLKWVPAWHSSSFPDGTYGGMPMGVVVELGGKRIYHAGDTALFSDMRLIGEMGLDLALLPIGDHFTMGPEDALKALELLRPKKVVPIHYNTFPPIRQDGEAFAQRAREKGVEGHALKPGEVLRLD | soluble |
| MGSDKIHHHHHHMSQQRPDRIKQMLHYLWQHRHLSTQQAIELFGYAEATVRRDFHYIASRYPGMVRGHGCIDFDDSTEDKEYVFDVKRTLQSEAKREIAALARTFIKDGDCFFLDSGSTCLELAKCLVDAKVKVICNDIKIANELGGFPHVESYIIGGLIRPGYFSVGESLALEMINAFAVERAFISCDALSIETGITNATMFEVGVKTRIIQRSREVILMADHSKFDTVEPHAVATLSCITTILSDSALPSAIARRYQQAGCRLIMSDPSSGAR | not soluble |
| MAGDPMRTYENKEELKAEIEKTFEKYILEFDNIPENLKDKRADEVDRTPAENLAYQVGWTNLVLKWEEDERKGLQVKTPSDKFKWNQLGELYQWFTDTYAHLSLQELKAKLNENINSISAMIDSLSEEELFEPHMRKWADEATKTATWEVYKFIHVNTVAPFGTFRTKIRKWKKIVLLEHHHHHH | soluble |
| MLPYMAYRYVKNKREKNQREMDSDLDSMVRSIVPDKTVICVPNVAAKLGEDSKEYIPGTLSIVEKSSGVFIEWKPSEDAETSWVMTSDDGNTEMVHARSPEEKQKCGARVAFSMDVNDLSSFRNDEPKRGSGGFPSIRLICRDGSSQVPLFFKNTTTAEFLDRLQGYITLRRSHRDSHLVIVVDQKSEALAKSVSMLDENGDILSRFMQNPYMTAMTGFSKITSFVQDQVIPSVLNDTDAVTQEEKIRLMRELRLAEEQMRVHSDAAGEFEVVTQLELPPRPEIYRELPVSKDLWNSFKLSNGSYDPMKLHHLKMNVFRGGLNAELRKEAWKCLLGYRQWHESDTDFQTRRAELAKQYENMKKQWMSVTEDQEKRFTKFVKRKSLVGEEIEND | not soluble |
